According to patent US20090029370, “REAL TIME NUCLEIC ACID DETECTION IN VIVO USING PROTEIN COMPLEMENTATION” (TRUSTEES OF BOSTON UNIVERSITY, published 2009):

T1: Rex peptide (printed HIV-1 Rex in tables, HTLV-1 Rex in text) (Human T-cell leukemia virus type 1?)
T1 chain: MPKTRRRPRRSQRKRP

T2: λN peptide (Bacteriophage lambda, UniProt P03045 SEQ:1-22)
T2 chain: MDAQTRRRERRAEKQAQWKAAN

B1: anti-Rex aptamer (ssRNA)
RNA: UAGGCGACGGUACGCAAGUACUCUUGCGCCGGCCUA
B2: λN aptamer (boxB) (ssRNA)
RNA: GGAUCCGGGCCCUGAAGAAGGGCCCUUUCCUUU
B3: anti-Rev aptamer (ssRNA)
RNA: GGCUGGACUCGUACUUCGGUACUGGAGAAACAGCC

What was measured:
Conditions in all cases: protein: synthetic; tags: custom-synthesized peptide
[1] = biological target: T1, Rex peptide (printed HIV-1 Rex in …); assay: EMSA; 50 mM Tris-HCl pH 8.0, 50 mM KCl, 30 C, ethidium bromide stain
Text: Experiments in vitro to choose aptamer-peptide pairs. Based on available data we chose three peptide/aptamer pairs; (i) […]; (ii) Bacterophage λN; and (iii) […] (see Table 1) and tested their binding affinity with cognate partner and cross-reactivity with two other RNA aptamers in vitro. We used non-radioactive gel-shift assay under conditions when fixed concentrations of RNA aptamer were allowed to form complexes with increasing ARM-peptide concentrations. We quantified the amount of the unbound RNA aptamer and the amount of the shifted complex (Table 1). […] At the same time, […] peptide did show some cross-reactivity with the two non-matched RNA aptamers.
In Vitro Gel-Shift Assay. RNAs were first denatured by heating at 95° C. in buffer (50 mM pH 8.0 Tris-HCl, 50 mM KCl) for 3 minutes and then slowly cooled to room temperature to renature the RNAs. Renatured RNAs and peptides were mixed in a common buffer (50 mM Tris-HCl, pH 8.0, 50 mM KCl) at 30° C. for 15 minutes. Peptide-RNA aptamer complexes were analyzed using gel electrophoresis with 15% TBE gel. RNA aptamers and peptide-RNA aptamer complexes were stained with ethidium bromide.

λN peptide = biological target: T2, λN peptide; assay: EMSA; 50 mM Tris-HCl pH 8.0, 50 mM KCl, 30 C
[2] = biological target: T1, Rex peptide (printed HIV-1 Rex in …); assay: EMSA; 50 mM Tris-HCl pH 8.0, 50 mM KCl, 30 C
[3] = biological target: Rev peptide (printed HTLV-1 Rev); assay: EMSA; cross-reactivity; 50 mM Tris-HCl pH 8.0, 50 mM KCl, 30 C

Binder | binding result [1] | binding result (λN peptide) | binding result [2] | binding result [3]
B1 | binds | no binding | – | –
B2 | – | binds | no binding | binds
B3 | – | no binding | no binding | –
